Blank lines part the entries; values can stand above or below the binder they belong to.
Key:
[1] = molecular target: T1, human CD19, membrane-bound, on cells (human, UniProt P15391 20-556); experiment: cell-based or functional assay
T1 sequence: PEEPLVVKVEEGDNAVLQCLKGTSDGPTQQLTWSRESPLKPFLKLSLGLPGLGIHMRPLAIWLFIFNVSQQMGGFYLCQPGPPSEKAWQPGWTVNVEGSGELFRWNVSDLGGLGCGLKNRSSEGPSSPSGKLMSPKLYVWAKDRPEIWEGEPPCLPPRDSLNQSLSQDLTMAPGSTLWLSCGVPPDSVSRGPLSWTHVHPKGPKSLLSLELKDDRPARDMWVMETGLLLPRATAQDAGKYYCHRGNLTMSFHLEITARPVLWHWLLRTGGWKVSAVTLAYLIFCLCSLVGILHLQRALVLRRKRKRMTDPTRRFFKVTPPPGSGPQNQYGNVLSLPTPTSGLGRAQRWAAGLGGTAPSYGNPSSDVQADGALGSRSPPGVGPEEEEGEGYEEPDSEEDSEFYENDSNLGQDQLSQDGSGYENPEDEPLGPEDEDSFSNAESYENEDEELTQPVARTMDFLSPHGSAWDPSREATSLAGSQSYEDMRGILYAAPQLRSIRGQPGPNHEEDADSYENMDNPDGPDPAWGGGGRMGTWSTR

[2] = molecular target: T2, human CD19 extracellular domain protein (human, UniProt P15391 20-291, biotinylated in the FIG. 2 ELISA and in the Fab screening (sites not given)); experiment: sandwich ELISA: antibody captured on goat anti-human kappa, biotinylated human CD19 ECD titrated (20 ug/mL to 9 ng/mL), about 16 h wash at 37 C, neutravidin-alkaline phosphatase, absorbance at 560 nm
T2 construct: also called CD19 extracellular domain (ECD) protein; biotinylated human CD19 ECD antigen
T2 sequence: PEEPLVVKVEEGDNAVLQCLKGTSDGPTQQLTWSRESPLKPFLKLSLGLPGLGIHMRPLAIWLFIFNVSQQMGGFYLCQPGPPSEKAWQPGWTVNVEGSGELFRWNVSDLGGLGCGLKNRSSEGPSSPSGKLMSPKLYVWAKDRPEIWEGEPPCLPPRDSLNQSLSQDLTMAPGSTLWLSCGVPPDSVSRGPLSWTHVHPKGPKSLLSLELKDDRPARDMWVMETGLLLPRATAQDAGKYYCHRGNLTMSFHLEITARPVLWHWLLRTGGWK
Protocol: The ELISA assay is performed as follows. A 96 well microtiter plate is coated overnight at 4° C. using 50 μL/well of goat anti-human kappa polyclonal antibody diluted to 5 μg/mL in phosphate buffered saline (PBS). Following overnight incubation, the plate is aspirated and blocked using 200 μL of casein buffer for 1 hour at room temperature. The plate is washed three times using PBST (PBS with 0.1% Tween). The anti-human CD19 antibodies are diluted to 5 μg/mL in PBS casein and 50 μL added to each column of the anti-human kappa coated casein blocked plate for 1 hour at 37° C. The plate is washed three times using PBST. Biotinylated human CD19 extracellular domain protein is serially diluted from 20 μg/mL to 9 ng/mL and 50 μL added to the plates and incubated for 1 hour at 37° C. The plate is washed three times using PBST and then transferred to a beaker containing 1 liter of PBST and incubated with stirring overnight (approx. 16 hr) at 37° C. The wash buffer is aspirated and 50 μL of neutravidin alkaline phosphatase-conjugate diluted 1:1000 in casein buffer is added and incubated for 1 hour at 37° C. The plate is washed three times using PBS 0.1% Tween. Fifty μL of AMP-PMP substrate diluted 1:35 in deionized water is added and the absorbance at 560 nm read on a Spectramax plate reader.

[3] = molecular target: T1, human CD19, membrane-bound, on cells; experiment: MSD-SET solution equilibrium titration at 37° C., fixed CHO cells expressing human CD19; geometric mean of 3 replicates
Protocol: (§1) Following incubation, cells are pelleted by centrifugation. One hundred microliters of the clarified supernatant from the plate is transferred to the prepared MSD plate and incubated on a plate shaker at room temperature for 60 minutes. Following incubation, the plate is washed 3× with TBST, then 100 μL of 1 μg/mL biotinylated goat anti-human IgG primary antibody (Southern Biotech, Catalog 2010-08) in 1% Blocker A is added to all wells. This is incubated on a plate shaker at room temperature for 60 minutes. The plate was washed 3× with TBST, then 100 μL of 1 μg/mL SULFO-TAG streptavidin (Meso Scale Discovery, P/N R32AD-1) in 1% Blocker A was added to all wells. This was incubated on a plate shaker at room temperature for 60 minutes. The plate is washed 3× with TBST, then 1× Read Buffer T (Meso Scale Discovery, P/NR92TC-1) is added immediately before reading the plate. Dissociation constant (KD) and a least common multiplier (LCM) to account for unknown antigen concentrations on cells are globally fit from the MSD-SET data to an equilibrium binding equation (see Darling and Brault, 2005, Kinetic Exclusion Assay Technology: Characterization of Molecular Interactions. Assay and Drug Development Technologies 2: 647-657) using non-linear regression in GraphPad Prism.

[4] = molecular target: T3, cynomolgus monkey CD19, membrane-bound, stably expressed on CHO cells (cynomolgus monkey, UniProt A0A2K5W8L9 20-557); experiment: MSD-SET solution equilibrium titration at 37° C., fixed CHO cells expressing cynomolgus monkey CD19; geometric mean of 3 replicates
T3 construct: whole, on cells; The cells were fixed with paraformaldehyde for MSD-SET; also called cynomolgus monkey CD19 expressing CHO cells
T3 sequence: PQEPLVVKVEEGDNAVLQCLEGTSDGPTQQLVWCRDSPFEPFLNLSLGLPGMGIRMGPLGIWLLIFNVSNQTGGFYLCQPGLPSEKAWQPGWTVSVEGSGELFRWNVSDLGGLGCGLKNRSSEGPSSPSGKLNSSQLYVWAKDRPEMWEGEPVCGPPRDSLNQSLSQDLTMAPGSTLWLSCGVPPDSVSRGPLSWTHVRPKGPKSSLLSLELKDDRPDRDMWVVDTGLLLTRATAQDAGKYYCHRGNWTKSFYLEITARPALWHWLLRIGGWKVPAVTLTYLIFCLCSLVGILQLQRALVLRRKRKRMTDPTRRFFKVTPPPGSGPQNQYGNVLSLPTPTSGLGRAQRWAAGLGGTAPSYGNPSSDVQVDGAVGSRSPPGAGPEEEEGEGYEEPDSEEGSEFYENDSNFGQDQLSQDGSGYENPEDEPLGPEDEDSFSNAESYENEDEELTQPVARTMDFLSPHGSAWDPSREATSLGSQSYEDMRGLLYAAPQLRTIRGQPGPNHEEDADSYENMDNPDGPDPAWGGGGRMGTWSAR
Protocol: as §1

[5] = molecular target: T1, human CD19, membrane-bound, on cells; experiment: cell-based or functional assay; remark: listed apart in the source
[6] = molecular target: T4, cynomolgus monkey CD19 Fc fusion protein (cynomolgus monkey, UniProt A0A2K5W8L9 20-292); experiment: SPR (Biacore T200) at 37° C., CD19-Fc captured on a protein A chip, Fab injected, 1:1 binding model
T4 construct: Bought from R&D Systems; also called recombinant CD19-Fc; not shown: Fc part of a bought fusion protein
T4 sequence: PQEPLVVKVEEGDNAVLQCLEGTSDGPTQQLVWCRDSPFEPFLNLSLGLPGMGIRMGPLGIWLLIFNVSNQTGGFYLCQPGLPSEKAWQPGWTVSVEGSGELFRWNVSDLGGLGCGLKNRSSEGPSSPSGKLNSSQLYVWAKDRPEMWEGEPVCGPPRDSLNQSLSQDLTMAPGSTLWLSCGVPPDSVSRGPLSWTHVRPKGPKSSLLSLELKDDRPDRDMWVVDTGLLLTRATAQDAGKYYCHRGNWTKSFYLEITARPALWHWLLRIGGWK
Protocol: (§2) Biacore T200 instrument (GE Healthcare Life Sciences), reagents, and Biacore T200 Evaluation Software Ver 3.1 are used for the surface plasmon resonance analysis of human, mouse and cynomolgus monkey CD19 binding to the Fab fragment of CB3f. Recombinant CD19-Fc proteins are purchased from R&D Systems. A protein A sensor chip (GE protein A chip P/N 2912755) is used. Running buffer is 1×HBS-EP+ (Teknova P/N H8022), and running temperature is 37° C.
(§3) CD19 Fc fusion proteins are diluted to 3 μg/mL in running buffer, and approximately 60 RU each of human, cynomolgus monkey, and mouse proteins are captured in flow cells (Fc) 2, 3 and 4, respectively. CB3f Fab fragment is diluted to 1000 nM in running buffer and then 5-fold serially diluted in running buffer to 1.6 nM for a total of 5 dilutions. Fab or buffer blank is injected at 50 μL/min for 300 seconds followed by a 900 second dissociation phase. Regeneration is performed by injecting 10 mM glycine pH 1.5 for 30 seconds at 50 μL/min over all Fc. Reference-subtracted data is collected as Fc2-Fc1, Fc3-Fc1 and Fc4-Fc1, and then reference-subtracted data is blank subtracted. The on-rate (kₒₙ) and off-rate (koff) are fit using the “1:1 Binding” model. The affinity (KD) is calculated from the binding kinetics according to the relationship: KD=koff/kₒₙ.

[7] = molecular target: T5, human CD19 Fc fusion protein (human, UniProt P15391 20-291); experiment: as above
T5 construct: Bought from R&D Systems; also called recombinant CD19-Fc; not shown: Fc part of a bought fusion protein
T5 sequence: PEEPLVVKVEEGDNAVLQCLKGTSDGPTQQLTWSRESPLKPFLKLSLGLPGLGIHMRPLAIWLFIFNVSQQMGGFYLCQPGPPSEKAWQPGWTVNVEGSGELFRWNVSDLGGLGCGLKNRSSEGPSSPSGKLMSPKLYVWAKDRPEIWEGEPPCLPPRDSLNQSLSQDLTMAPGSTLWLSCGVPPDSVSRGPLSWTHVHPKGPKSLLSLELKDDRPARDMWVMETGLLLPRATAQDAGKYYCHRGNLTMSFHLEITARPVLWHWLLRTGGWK
Protocol: as §2, §3

[8] = molecular target: T4, cynomolgus monkey CD19 Fc fusion protein; experiment: SPR (Biacore T200) at 37° C., CD19-Fc captured on a protein A chip, Fab injected, KD = koff/kon
Protocol: as §2, §3

[9] = molecular target: T5, human CD19 Fc fusion protein; experiment: as above
Protocol: as §2, §3

[10] = molecular target: T6, mouse CD19 Fc fusion protein (mouse, UniProt P25918 19-287, limits assumed); experiment: SPR (Biacore T200) at 37° C., CD19-Fc captured on a protein A chip, Fab injected
T6 construct: Bought from R&D Systems; also called recombinant CD19-Fc; not shown: Fc part of a bought fusion protein
T6 sequence (looked up): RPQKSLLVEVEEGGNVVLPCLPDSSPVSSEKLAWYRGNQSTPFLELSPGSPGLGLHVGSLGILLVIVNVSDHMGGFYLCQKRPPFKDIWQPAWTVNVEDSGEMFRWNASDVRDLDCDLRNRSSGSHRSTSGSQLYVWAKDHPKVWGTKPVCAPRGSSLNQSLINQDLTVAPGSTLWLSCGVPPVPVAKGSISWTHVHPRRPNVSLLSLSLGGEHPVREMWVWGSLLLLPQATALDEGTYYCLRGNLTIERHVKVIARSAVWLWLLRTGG
Protocol: as §2, §3

IC50, inhibition of B cell activation in whole blood (reduction of CD69+ B cells), Average [1]: 8 pM
IC50, inhibition of B cell activation in whole blood (reduction of CD69+ B cells), Donor 1 [1]: 15 pM
IC50, inhibition of B cell activation in whole blood (reduction of CD69+ B cells), Donor 2 [1]: 0.6 pM
IC50, inhibition of B cell activation in whole blood (reduction of CD69+ B cells), Donor 3 [1]: 8 pM
EC50 (read off the curve) [2]: ~0.8 mg/L
Kd [3]: 3.35 pM
Kd [4]: 45.2 pM
IC50, inhibition of primary B cell proliferation ([3H]-thymidine), Average of 12 donors [5]: 7 pM
IC50, inhibition of primary B cell proliferation ([3H]-thymidine), Donor 1 [5]: 6 pM
IC50, inhibition of primary B cell proliferation ([3H]-thymidine), Donor 2 [5]: 9 pM
IC50, inhibition of primary B cell proliferation ([3H]-thymidine), Donor 3 [5]: 3 pM
IC50, inhibition of primary B cell proliferation ([3H]-thymidine), Donor 4 [5]: 6 pM
IC50, inhibition of primary B cell proliferation ([3H]-thymidine), Donor 5 [5]: 4 pM
IC50, inhibition of primary B cell proliferation ([3H]-thymidine), Donor 6 [5]: 3 pM
IC50, inhibition of primary B cell proliferation ([3H]-thymidine), Donor 7 [5]: 3 pM
IC50, inhibition of primary B cell proliferation ([3H]-thymidine), Donor 8 [5]: 5 pM
IC50, inhibition of primary B cell proliferation ([3H]-thymidine), Donor 9 [5]: 5 pM
IC50, inhibition of primary B cell proliferation ([3H]-thymidine), Donor 10 [5]: 28 pM
IC50, inhibition of primary B cell proliferation ([3H]-thymidine), Donor 11 [5]: 4 pM
IC50, inhibition of primary B cell proliferation ([3H]-thymidine), Donor 12 [5]: 5 pM
B1: anti-human CD19 mAb CB3f (IgG4 isotype) (antibody, V domains shown)
VH: QVQLVQSGAEVKKPGSSVKVSCKASGHTISSYAYSWVRQAPGQGLEWMGDIIPAYGSPNYAQKFQGRVTITADESTSTAYMELSSLRSEDTAVYYCAREDFGKNYAMDVWGQGTLVTVSS
VL: EIVLTQSPGTLSLSPGERATLSCRASQHVSSHYLAWYQQKPGQAPRLLIYGASSRATGIPDRFSGSGSGTDFTLTISRLEPEDFAVYYCQHYGQSQFTFGQGTKVEIKR
notes: also called anti-human CD19 mAb1

koff [6]: 0.0978 s⁻¹
kon [6]: 1.04e+06 M⁻¹ s⁻¹
koff [7]: 0.000235 s⁻¹
kon [7]: 3.2e+06 M⁻¹ s⁻¹
Kd [8]: 94500 pM
Kd [9]: 76.8 pM
binding result [10]: no binding (tested: 1 µM)
B2: Fab fragment of CB3f (Fab, V domains shown)
VH: QVQLVQSGAEVKKPGSSVKVSCKASGHTISSYAYSWVRQAPGQGLEWMGDIIPAYGSPNYAQKFQGRVTITADESTSTAYMELSSLRSEDTAVYYCAREDFGKNYAMDVWGQGTLVTVSS
VL: EIVLTQSPGTLSLSPGERATLSCRASQHVSSHYLAWYQQKPGQAPRLLIYGASSRATGIPDRFSGSGSGTDFTLTISRLEPEDFAVYYCQHYGQSQFTFGQGTKVEIK
notes: also called CB3f Fab fragment; CB3f Fab

— patent US20210269520A1 (Eli Lilly, published 2021)
